Measurements taken from article PMC7045643, “Allosteric inhibition of CRISPR-Cas9 by bacteriophage-derived peptides” (Genome Biology, 2020).

Tested on: catalytically inactive Cas9 (dCas9)
Test: ChIP-qPCR of dCas9 binding at AAVS1 on-target and off-target sites in Hela cells
Format: cell-based
Details: AAVS1 on target and pre-determined off-target sites, two biological replicates, Fig. S9
Protocol: For ChIP experiments, low-passage Hela cells were seeded on to 15-cm plates at a density of 4 × 10^6 cells per plate. The next day, a total of 40.5 μg M13 G8PPD or M13 G8PFL plasmid, 20.25 μg 3×Flag-tagged dCas9 plasmid, and 20.25 μg sgRNA plasmid were transfected into cells using Lipofectamine 3000 (Invitrogen). Two biological replicates were performed for each condition. ChIP was performed with Simple ChIP Enzymatic Chromatin IP Kit (Cell Signaling Technology) following the manufacturer’s instructions. After 48 h, the cells were washed once with PBS, and 1.25 mL of 16% formaldehyde (Life Technologies) was added to 20 mL of serum-free DMEM for crosslinking to a final formaldehyde concentration of 1%. After 10 min of crosslinking at room temperature, the cells were harvested for the ChIP assay. The chromatin was sonicated using Branson digital sonifier for 10 cycles of “on/off” pulse with a 30-s interval. Fragmented chromatin was diluted and incubated with 2 μg anti-Flag Chip grade antibody (Sigma, USA) overnight at 4 °C. qPCR with immunoprecipitation-purified DNA as the template was used to analyze the effects of G8Ps on dCas9 binding at the on-target and off-target sites.

B1: M13 G8PFL: full-length M13 phage major coat protein G8P, expressed from plasmid in human cells (protein, UniProt P03619 1-74, looked up)
chain: MKKSVVAKIIAGSTLVIGSSAFAADDATSQAKAAFDSLTAQATEMSGYAWALVVLVVGATVGIKLFKKFVSRAS
modifications: full-length
notes: full-length M13 phage major coat protein G8P, expressed from plasmid in human cells
In the case of B1, the “binding specificity of dCas9 at on-target site” value is reported as “did not significantly improve”.
